Results on 81 sequences are retold here after the supplement of paper PMC9942255.

Values joined by “and” are separate entries in the source; they are usually repeats but may differ in a detail not shown here. Equal entries are not always repeated.

For the data set, the system named is Bacillus subtilis DB104 (SP-AmyQ fusion secretion). The data set can be described thus: AmyQ secretion efficiency, weighted average sort bin (1 = best secretion, 10 = worst) (bin number (weighted average, 1-10)); higher = lower secretion efficiency. An outline of the steps: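 Secretion score gives the read-frequency-weighted average bin number, normalised to beads per bin, with low-abundance sequences left out. A B. subtilis DB104 library expressing mature AmyQ fused to designed signal peptides, integrated at amyE, was encapsulated with fluorescein-starch at about 0.3 cells per ~65 nL alginate bead. Beads were grown about 13 h at room temperature, stained with nile red, and the occupied ones were sorted by large-particle flow cytometry into 10 equally populated bins by green/red fluorescence ratio before the amplicons from each bin were Illumina-sequenced.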

On to MKKLLAAGIIGLLTVSIASPCFAAEK, for which the AmyQ secretion efficiency amounted to 2.42.
As for MRKKRVITCVMAASLTLGSLLPAGYASAAPS, the figure is 2.5; as for MRRVCFLAALIMAFTLPNSVYAQKP, 2.21; as for MKLKKRVSMFKRRRTMCGGLFVTPAKAVKT, 6.84.
With MKSRTIWTIILGALLVCCIAVAYTLTKSQAGASSS the figure was 5.1 and 5.65; with MKKRFFGPIILAFILFAGAIEIPS, 5.48.
MKKAAAVLLSLGLVFGFSYGAGHVAESKTK came in with an AmyQ secretion efficiency of 4.52.
With MKKRLIGFLVLVPALIMSGITLIEMNKK the figure was 6.01.
The sequence MKKKLKRKKRRSAIVGTTLVVTPAEAATI displayed an AmyQ secretion efficiency of 6.61.
Take MRKTSLLLAGLCTAAQMVFVTHASAEES: the AmyQ secretion efficiency stood at 2.32.
With MRPVFPLILSAVLFLSCFFGARQTEASHSKR the figure was 2.35; with MKSKGSIMACKRLFSFTITTFINTETISAFSN, 6.73; with MKKRLIAPMLLSAASLAFFAMSGSAQKAAY, 6.67.
MKKTLAAGIIGLLTVSIASPSFAAEK came in with an AmyQ secretion efficiency of 2.62.
With MKQTMIFLTSFMLLAMTGQTALAKDV the figure was 3.23; with MKKAKRVSALTPSTTLAITAKAKEL, 7.61.
MHLIRAAGAVCLAVVLIAGCAFNEDQHQAEGENT came in with an AmyQ secretion efficiency of 5.56.
As for MPIKKKVMMCLAVTLVFGSMSSGGFKE, the AmyQ secretion efficiency turned out to be 5.66.
The sequence MKKLLAAGIIGLLTVSIASPSFKAEK gave an AmyQ secretion efficiency of 5.02.
As for MKKWLIIAVSLAIAIVLFDDTDGEAKAAGM, the figure is 2.55.
With MKRSISRRRKCLLITLLTMGGMIASPASAAGT the figure was 2.97.
With MRKNRILALFVLSLGLLFSFMVTPVSAASK the figure was 1.99; with MAIIIAIIAAVIVIAALITFNVCNASPG, 7.28; with MRNLTKFLLLLAFLCMAAQMVFVTHASAEES, 3.58.
The sequence MKKWMAGLFLAAAVLLCLMVPQQIQPASS came in with an AmyQ secretion efficiency of 7.7.
In turn, MNLRKILLSSALSLGMLTLFFLSAVTVSAAPVLATSS displayed an AmyQ secretion efficiency of 1.71.
In turn, MKMKSGMEQAVSVLLLLSRLPVQASLRRK displayed an AmyQ secretion efficiency of 7.08.
MIAYFGKCLLLVTIMFLGVLFVMQQANHG displayed an AmyQ secretion efficiency of 7.39.
As for MKRRRSIFITCLLITLLTMGGMIASPASAAGT, the figure is 2.4; as for MKKIMSAFVGMVLLTIFCFSPQASAEED, 2.74; as for MMKKLFHSTLIVLLFFSFFGVQPIHAATR, 2.55.
MPIKKKVMMCLAVTLVFGSMSFPTLTNWGGFKE registered an AmyQ secretion efficiency of 7.59.
As for MKLSVKIAGVLTVAAAAMTAKMYQTAKGN, the figure is 7.71; as for MRKKTKNRLISSVLSTVVISSLLFAPGAAGASSK, 2.22; as for MKKQIITATTAVVLGSTLFARKKRKKASAQSI, 7.27.
MKVPKTMLLSTAAGLLLSLTATSRSAHYV: the AmyQ secretion efficiency came to 6.25.
As for MKKTIMSFVAVAALSTTAFQPHASAKEI, the figure is 2.23.
With MFKKHTISLLIIFLLASAVLAKPAEAHTV the figure was 2.44.
Consider MKSKGSIMACLILFSFTITTFINTETSSAFSN, for which the AmyQ secretion efficiency worked out at 3.41.
With MKKWMAGLFLAAAVLLCLMVPQQIQFASS the figure was 5.75; with MRPVFPLILSAVLFLSCFEGAEQTEASASKR, 3.25.
As for MLKKKWMVGLLAGCLAAGGFSYNFFATEN, the figure is 6.27; as for MKRSINSIFITCLLITLLTMGGMIASPASAAGT, 1.88.
MKKGIIRFLLVSFVLFFALSTGITGVQCAPA came in with an AmyQ secretion efficiency of 6.36.
With MLCVMMLLFSAIASFPVSVQAKDQ the figure was 3.83; with MRSKKLWISLLFALTLIFAMAFIAMIAQAAGK, 2.
As for MKQGKFSVFLILLLMLAPKEKAEAASS, the figure is 2.23; as for MKKWMITIAMLILAGIALFVFISPTKSHKT, 7.06; as for MLLGKILLSSALSLGMLVSAAPVLATSS, 6.9.
As for MFNRLFRMSSFIVCFLAALIMAFTLPNSVYAQKP, the figure is 1.95; as for MKKLIMMTGLLFGLTSPAFAAEK, 2.43; as for MKFVKRRIIALVTILMLSVTSLFADEEEAKAAEH, 2.36.
MKKKQVMLALTAAAGLGLTALHSAPAHKAAPL returned an AmyQ secretion efficiency of 6.85.
As for MFFKKTVVSALSISALALSVSGVASAHEI, the figure is 3; as for MKKTIMSFVAVAALSTTAFGAHASAKKR, 2.68; as for MTKLKMLSMLTVMIASLFIFSSQALFVQY, 7.31.
As for MKKQIITATTAVVLGSTLFAGAPSAQSI, the figure is 3.52; as for MPYLKRVLLLLVTGLFMSLFAVTATASIQTG, 1.67; as for MKVPKTMLLSTAAGLLLSLTATSVSWHYV, 4.99.
Take MKKWMAGLFLAAAVLLCLLVTSLMVPQQIQGASS: the AmyQ secretion efficiency was determined as 4.31.
With MKSKGSIMACLILFSFTITTFIAFITISAFSN the figure was 5.09.
With MKWMCSICCAAVLLAGRRRRRKAQAEAV the figure was 6.72.
With MKVLLSALLLLLFAFEPSKSGKKL the figure was 6.03.
For the sequence MGLGKKLSVAVAASFMSLSISLPGLQAAEG, the AmyQ secretion efficiency came to 1.65.
On to MKKKRKKGGTGSAIVGTTLVVTPAEAATI, for which the AmyQ secretion efficiency came to 7.88.
With MKTKTLFIFSAILTLSIFAPNETFAQRR the figure was 1.31.
As for MKKRLIGFLVLVPALIMSGITLIEANDD, the figure is 4.89; as for MKKWIYTVLVLSIAGIGGFSVHAASS, 6.39; as for MKRKKMSGLLLVAVGFSFTQVMVHAGET, 6.25.
With MKKQIITATTAVVLGSTLFAGASSAQSI the figure was 2.25; with MPYLKRVLLLLVTGLFMSLFAVTATASPQTG, 1.86; with MGRIKTKITILLVLLLLLAGGYTYIN, 5.32.
Sequence MKKRLIAPMLLSAASLAFFAMSGSAQAARR had an AmyQ secretion efficiency of 6.96.
In turn, MTGTTVSTAIIIISVMLSFVIAVFHTIHASELTP came in with an AmyQ secretion efficiency of 4.15.
As for MKKRITYSFTMMLLALLAVVAFAFTDSSKAKAAEA, the figure is 1.93; as for MKLSVKIAGVLTVAAAAMTAKMYATAEEE, 6.08; as for MKRFLIGAGVAAVILSGWFIADHQTHSQEM, 7.62 and 6.01 and 6.59.
Turning to MGSTGSIMFACLILFSFTITTFINTETISAFSN, the AmyQ secretion efficiency came to 4.71.
As for MFNRLFRVCFLAALIMAFTLPNSVYMQKP, the figure is 7.02; as for MTKLKMLSMLTVMIASLFIFSKRRALAVQY, 6.11; as for MTKLKMLSMLTVMIASLFIFSSQALVVQY, 5.36.
